The results in this text go back to patent publication EP1433851A2.

The target of the assay is FITC-labeled CD4 (UniProt P01730). Put plainly: size exclusion HPLC (Biosil 250); CD4-FITC alone eluted at 2.67 minutes.

For the substance “US4 gp120, purified from CHO cell culture supernatant”, the retention time of the complex was 2.17 min.

“oligomeric gp140 US4 (o-gp140 US4), purified from CHO cell culture supernatant” came in with a retention time of the complex of 1.9 min.
